Literature values in publication PMC12583094, “A novel antioxidant peptide from black soybean [Glycine max (L.) Merr.] with verified MPO interaction and multi-scale antioxidant activity” (Frontiers in Nutrition, 2025).

System: MPO
Source text: The RU values increased from approximately 0.79 RU to around 24.51 RU with increasing concentrations.

B1: ceruloplasmin: a physiological MPO inhibitor (protein, UniProt P00450 20-1065, looked up)
Ceruloplasmin: KEKHYYIGIIETTWDYASDHGEKKLISVDTEHSNIYLQNGPDRIGRLYKKALYLQYTDETFRTTIEKPVWLGFLGPIIKAETGDKVYVHLKNLASRPYTFHSHGITYYKEHEGAIYPDNTTDFQRADDKVYPGEQYTYMLLATEEQSPGEGDGNCVTRIYHSHIDAPKDIASGLIGPLIICKKDSLDKEKEKHIDREFVVMFSVVDENFSWYLEDNIKTYCSEPEKVDKDNEDFQESNRMYSVNGYTFGSLPGLSMCAEDRVKWYLFGMGNEVDVHAAFFHGQALTNKNYRIDTINLFPATLFDAYMVAQNPGEWMLSCQNLNHLKAGLQAFFQVQECNKSSSKDNIRGKHVRHYYIAAEEIIWNYAPSGIDIFTKENLTAPGSDSAVFFEQGTTRIGGSYKKLVYREYTDASFTNRKERGPEEEHLGILGPVIWAEVGDTIRVTFHNKGAYPLSIEPIGVRFNKNNEGTYYSPNYNPQSRSVPPSASHVAPTETFTYEWTVPKEVGPTNADPVCLAKMYYSAVEPTKDIFTGLIGPMKICKKGSLHANGRQKDVDKEFYLFPTVFDENESLLLEDNIRMFTTAPDQVDKEDEDFQESNKMHSMNGFMYGNQPGLTMCKGDSVVWYLFSAGNEADVHGIYFSGNTYLWRGERRDTANLFPQTSLTLHMWPDTEGTFNVECLTTDHYTGGMKQKYTVNQCRRQSEDSTFYLGERTYYIAAVEVEWDYSPQREWEKELHHLQEQNVSNAFLDKGEFYIGSKYKKVVYRQYTDSTFRVPVERKAEEEHLGILGPQLHADVGDKVKIIFKNMATRPYSIHAHGVQTESSTVTPTLPGETLTYVWKIPERSGAGTEDSACIPWAYYSTVDQVKDLYSGLIGPLIVCRRPYLKVFNPRRKLEFALLFLVFDENESWYLDDNIKTYSDHPEKVNKDDEEFIESNKMHAINGRMFGNLQGLTMHVGDEVNWYLMGMGNEIDLHTVHFHGHSFQYKHRGVYSSDVFDIFPGTYQTLEMFPRTPGIWLLHCHVTDHIHAGMETTYTVLQNEDTKSG
binding to MPO by SPR: clear dose-dependent binding effect
